Consider five molecules from article PMC7473641, “The C-terminal helix of BubR1 is essential for CENP-E-dependent chromosome alignment” (Journal of Cell Science, 2020).

First the molecules themselves.
B3: CENP-E_(2091–2358)–GST (domain or fragment, human, UniProt Q02224-1 2091-2358, looked up)
chain: ESLREKCSRIKELLKRYSEMDDHYECLNRLSLDLEKEIEFQKELSMRVKANLSLPYLQTKHIEKLFTANQRCSMEFHRIMKKLKYVLSYVTKIKEEQHESINKFEMDFIDEVEKQKELLIKIQHLQQDCDVPSRELRDLKLNQNMDLHIEEILKDFSESEFPSIKTEFQQVLSNRKEMTQFLEEWLNTRFDIEKLKNGIQKENDRICQVNNFFNNRIIAIMNESTEFEERSATISKEWEQDLKSLKEKNEKLFKNYQTLKTSLASGAQ
notes: no own measurement; not shown: GST, C-terminal, kept
B4: BubR1_(705–1050), pseudokinase domain of BubR1 (domain or fragment, human, UniProt O60566 705-1050, looked up)
chain: EKLELTNETSENPTQSPWCSQYRRQLLKSLPELSASAELCIEDRPMPKLEIEKEIELGNEDYCIKREYLICEDYKLFWVAPRNSAELTVIKVSSQPVPWDFYINLKLKERLNEDFDHFCSCYQYQDGCIVWHQYINCFTLQDLLQHSEYITHEITVLIIYNLLTIVEMLHKAEIVHGDLSPRCLILRNRIHDPYDCNKNNQALKIVDFSYSVDLRVQLDVFTLSGFRTVQILEGQKILANCSSPYQVDLFGIADLAHLLLFKEHLQVFWDGSFWKLSQNISELKDGELWNKFFVRILNANDEATVSVLGELAAEMNGVFDTTFQSHLNKALWKVGKLTSPGALLFQ
notes: source: E. coli BL21-CodonPlus (DE3)-RIL (overnight at 18°C), purified (HisTrap, 3C protease, SEC); not shown: His6, N-terminal, cleaved

For series [1], the target named is B4. Put plainly: SEC; co-elution on Superdex Increase 200 10/300 GL in binding buffer (20 mM HEPES pH 7.5, 150 mM NaCl, 1 mM EDTA, 1 mM DTT); proteins mixed in equimolar ratio at ~7 µM; fractions on Coomassie gels. The conditions noted are these: both partners purified.
Series [2] deals with the molecule itself. Put plainly: SEC-MALS; 100 µl at 1 mg/ml on Superdex-200 10/300 GL Increase, 22°C, gel filtration buffer (20 mM HEPES pH 7.5, 300 mM NaCl, or 500 mM for CENP-E 2055-2608, 1 mM EDTA, 1 mM DTT). For orientation: Size exclusion chromatography separates by hydrodynamic size, large species first.
For series [3], the target named is T1, BubR1_(432–1050), C terminus of BubR1 containing the pseudokinase domain (human, UniProt O60566 432-1050).
T1 construct: source: purified recombinant
The series is described as follows: SEC; co-elution on Superdex Increase 200 10/300 GL in binding buffer (20 mM HEPES pH 7.5, 150 mM NaCl, 1 mM EDTA, 1 mM DTT); proteins mixed in equimolar ratio at ~7 µM; fractions on Coomassie gels. The following applies: both partners purified.

In series [4] the target is B4. The series is described as follows: ITC; 276 µM BubR1 705-1050 titrated into 25 µM CENP-E 2091-2358-GST at 37°C; 20 mM HEPES pH 7.5, 150 mM NaCl, 1 mM EDTA, 0.005% Tween-20, 0.5 mM TCEP; one set of sites. The following applies: both partners purified.
The target in series [5] is B3. The description is as above. The following applies: both partners purified.

B1: CENP-E_(2055–2358), minimal kinetochore-targeting domain of CENP-E (domain or fragment, human, UniProt Q02224-1 2055-2358, looked up)
chain: RDQFIATLREMIARDRQNHQVKPEKRLLSDGQQHLTESLREKCSRIKELLKRYSEMDDHYECLNRLSLDLEKEIEFQKELSMRVKANLSLPYLQTKHIEKLFTANQRCSMEFHRIMKKLKYVLSYVTKIKEEQHESINKFEMDFIDEVEKQKELLIKIQHLQQDCDVPSRELRDLKLNQNMDLHIEEILKDFSESEFPSIKTEFQQVLSNRKEMTQFLEEWLNTRFDIEKLKNGIQKENDRICQVNNFFNNRIIAIMNESTEFEERSATISKEWEQDLKSLKEKNEKLFKNYQTLKTSLASGAQ
notes: Monomer by SEC-MALS; source: E. coli BL21-CodonPlus (DE3)-RIL, purified (HisTrap, Superdex 200)
With B1, the binding result in series [1] is on record as “binds”.

B2: CENP-E_(2055–2608), kinetochore- and centrosome-targeting domain of CENP-E (domain or fragment, human, UniProt Q02224-1 2055-2608, looked up)
chain: RDQFIATLREMIARDRQNHQVKPEKRLLSDGQQHLTESLREKCSRIKELLKRYSEMDDHYECLNRLSLDLEKEIEFQKELSMRVKANLSLPYLQTKHIEKLFTANQRCSMEFHRIMKKLKYVLSYVTKIKEEQHESINKFEMDFIDEVEKQKELLIKIQHLQQDCDVPSRELRDLKLNQNMDLHIEEILKDFSESEFPSIKTEFQQVLSNRKEMTQFLEEWLNTRFDIEKLKNGIQKENDRICQVNNFFNNRIIAIMNESTEFEERSATISKEWEQDLKSLKEKNEKLFKNYQTLKTSLASGAQVNPTTQDNKNPHVTSRATQLTTEKIRELENSLHEAKESAMHKESKIIKMQKELEVTNDIIAKLQAKVHESNKCLEKTKETIQVLQDKVALGAKPYKEEIEDLKMKLVKIDLEKMKNAKEFEKEISATKATVEYQKEVIRLLRENLRRSQQAQDTSVISEHTDPQPSNKPLTCGGGSGIVQNTKALILKSEHIRLEKEISKLKQQNEQLIKQKNELLSNNQHLSNEVKTWKERTLKREAHKQVTCENSPKS
notes: Dimer by SEC-MALS; Aggregated in 150 mM NaCl and was kept in 500 mM NaCl; Cloned in pET-3aTr; also called longer dimeric kinetochore-targeting domain; source: E. coli BL21-CodonPlus (DE3)-RIL, purified (HisTrap, Superdex 200 in 500 mM NaCl)
In general, stoichiometry N refers to the number of molecules, sites or subunits per partner or assembly. Take B2: the “stoichiometry N” value in series [2] stood at 2. Also, the binding result in series [3] was “binds”.
The Kd is a measure of binding affinity in units of concentration. Lower therefore signals higher affinity. In turn, B3 yielded a Kd in series [4] of 318 nM.
In the case of B4, in series [5], the dH was -5.1 kcal/mol and the “stoichiometry N” value was found to be 0.908.

B5: CENP-E_(2069–2358)–GST (domain or fragment, human, UniProt Q02224-1 2069-2358, looked up)
chain: DRQNHQVKPEKRLLSDGQQHLTESLREKCSRIKELLKRYSEMDDHYECLNRLSLDLEKEIEFQKELSMRVKANLSLPYLQTKHIEKLFTANQRCSMEFHRIMKKLKYVLSYVTKIKEEQHESINKFEMDFIDEVEKQKELLIKIQHLQQDCDVPSRELRDLKLNQNMDLHIEEILKDFSESEFPSIKTEFQQVLSNRKEMTQFLEEWLNTRFDIEKLKNGIQKENDRICQVNNFFNNRIIAIMNESTEFEERSATISKEWEQDLKSLKEKNEKLFKNYQTLKTSLASGAQ
notes: no own measurement of the oligomeric state; source: E. coli BL21-CodonPlus (DE3)-RIL, purified; not shown: GST, C-terminal, kept
As for B5, in series [1], the binding result is “binds”.
